Data taken from patent publication US5869271A, “G-beta-gamma regulated phosphatidylinositol-3' kinase” (Onyx Pharmaceuticals, priority 1997, dated 1999).

Target: free p120 PI3K catalytic subunit (Sus scrofa, UniProt O02697)
Experiment: PI3K assay on free recombinant p120 (Sf9-derived)
Format: biochemical, porcine
Method: Assays contained either 7 nM p101/p120 or 36 nM p120 alone (final concentrations) which were incubated with various reagents; 10 mM NaF and 30 μM AlCl3 (A/F) ; 1 μM Gβγ-subunits (βγ); 2 μM Gα-GDP; 100 nM wortmannin (W) or 50 μM tyrosine phosphorylated peptide (PY) for a total of 15 minutes (at 0° C.) prior to starting the assays by adding [γ^32 P]-ATP; [^32 P]-incorporated into [^32 P]-PtdIns(3,4,5) P3 was quantified. The data shown are means (n=2).
Purified aliquots of Sf9 -derived or pig neutrophil cytosol-derived PI3K were diluted in ice-cold 0.12M NaCl, 25 mM HEPES, 1 mM EGTA, 1 mM DTT, 1 mg-ml^-1 BSA, 1% betaine, 0.02%, w/v, Tween-20, pH 7.4, 0° C. to an appropriate extent, then 5 μl aliquots were stored on ice until assayed. […] 30 μl of a mixture of phospholipids with or without Gβγs and/or Gαs (either GDP-bound or activated) was added to the 5 μl fractions, or 10 μl of beads, and mixed. After 10 minutes on ice, 5-10 μl of last wash buffer, supplemented with MgCl2 to give a final concentration in the extant assay volume of 3.5 mM, was added and mixed. Six minutes later, 5 μl of last wash buffer was added (to give a final assay volume of 50 μl) containing [^32 ]-ATP (typically 10 μCi assay^-1, Amersham, PB10168) and 3.5 mM MgCl2, tubes were mixed and transferred to a 30° C. water bath. […]

free p120 PI3K catalytic subunit, sequence (O02697 whole entry): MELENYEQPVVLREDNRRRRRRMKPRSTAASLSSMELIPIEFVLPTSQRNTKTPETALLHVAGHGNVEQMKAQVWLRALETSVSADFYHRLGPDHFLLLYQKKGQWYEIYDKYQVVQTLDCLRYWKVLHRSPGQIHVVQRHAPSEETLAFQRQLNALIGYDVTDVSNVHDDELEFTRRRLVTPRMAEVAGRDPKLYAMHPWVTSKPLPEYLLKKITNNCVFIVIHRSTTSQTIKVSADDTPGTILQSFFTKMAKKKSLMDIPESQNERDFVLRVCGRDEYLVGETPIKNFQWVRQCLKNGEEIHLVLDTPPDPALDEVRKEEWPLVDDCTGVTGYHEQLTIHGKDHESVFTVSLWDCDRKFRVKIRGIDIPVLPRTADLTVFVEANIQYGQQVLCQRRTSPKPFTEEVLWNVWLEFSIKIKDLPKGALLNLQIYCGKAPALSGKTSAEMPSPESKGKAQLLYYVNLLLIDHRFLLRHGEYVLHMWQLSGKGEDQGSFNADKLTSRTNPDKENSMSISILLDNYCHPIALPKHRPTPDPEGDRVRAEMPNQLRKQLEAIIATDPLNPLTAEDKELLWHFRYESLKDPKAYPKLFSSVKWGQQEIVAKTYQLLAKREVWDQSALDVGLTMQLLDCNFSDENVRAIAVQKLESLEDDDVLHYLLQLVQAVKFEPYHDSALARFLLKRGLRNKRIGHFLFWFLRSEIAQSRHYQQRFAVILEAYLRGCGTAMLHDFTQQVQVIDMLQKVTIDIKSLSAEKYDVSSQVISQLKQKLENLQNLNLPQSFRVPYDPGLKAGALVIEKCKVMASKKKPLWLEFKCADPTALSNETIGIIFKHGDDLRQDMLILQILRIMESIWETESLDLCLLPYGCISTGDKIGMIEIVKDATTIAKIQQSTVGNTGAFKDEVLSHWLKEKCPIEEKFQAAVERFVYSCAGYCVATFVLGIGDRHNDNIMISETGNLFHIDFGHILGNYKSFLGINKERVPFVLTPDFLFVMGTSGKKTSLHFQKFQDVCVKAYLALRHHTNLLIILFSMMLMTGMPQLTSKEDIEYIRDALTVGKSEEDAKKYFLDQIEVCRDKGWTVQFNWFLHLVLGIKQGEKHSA

B1: p120: catalytic subunit of the G protein-regulated PI3K; the b332 result is for the form after complete thrombin cleavage (protein)
chain: MELENYEQPVVLREDNRRRRRRMKPRSTAASLSSMELIPIEFVLATSQRNTKTPETALLHVAGHGNVEKMKAQVLLRALETSVSWDFYHRFGPDHFLLVFQKKGEWYEIYDKYQVVQTLDCLRYWEVLHRSPGQIHVVQRHAPSEETLAFQRQLNALIGYDVTDVSNVHDDELEFTRRRLVTPRMAEVAGRDPKLYAMHPWVTSKPLPEYLLKKITNNCVFIVIHRSTTSQTIKVSADDTPGTILQSFFTKMAKKKSLMDIPESQNERDFVLRVCGRDEYLVGETPIKNFQWVRQCLKNGEEIHLVLDTPPDPALDEVRKEEWPLVDDCTGVTGYHEQLTIHGKDHESVFTVSLWDCDRKFRVKIRGIDIPVLPRTADLTVFVEANIQYGQQVLCQRRTSPKPFTEEVLWNVWLEFSIKIKDLPKGALLNLQIYCGKAPALSGKTSAEMPSPESKGKAQLLYYVNLLLIDHRFLLRHGEYVLHMWQLSGKGEDQGSFNADKLTSGTNPDKEDSMSISILLDNYCHPIALPKHRPTPDPEGDRVRAEMPNQLRKQLEAIIATDPLNPLTAEDKELLWHFRYESLKDPKAYPKLFSSVKWGQQEIVAKTYQLLAKREVWDQSALDVGLTMQLLDCNFSDENVRAIAVQKLESLEDDDVLHYLLQLVQAVKFEPYHDSALARFLLKRGLRNKRIGHFLFWFLRSEIAQSRHYQQRFAVILEAYLRGCGTAMLHDFTQQVQVIDMLQKVTIDIKSLSAEKYDVSSQVISQLKQKLENLQNLNLPQSFRVPYDPGLKAGALVIEKCKVMASKKKPLWLEFKCADPTALSNETIGIIFKHGDDLRQDMLILQILRIMESIWETESLDLCLLPYGCISTGDKIGMIEIVKDATTIAKIQQSTVGNTGAFKDEVLSHWLKEKCPIEEKFQAAVERFVYSCAGYCVATFVLGIGDRHNDNIMISETGNLFHIDFGHILGNYKSFLGINKERVPFVLTPDFLFVMGTSGKKTSLHFQKFQDVCVKAYLALRHHTNLLIILFSMMLMTGMPQLTSKEDIEYIRDALTVGKSEEDAKKYFLDQIEVCRDKGWTVQFNWFLHLVLGIKQGEKHPA
B1 was tested, and the “reduction of p120 PI3K catalytic activity by removal of about 40 amino terminal residues (thrombin cleavage)” value was 20-30%.
